In article PMC3838125, “Crystal Structure of Venezuelan Hemorrhagic Fever Virus Fusion Glycoprotein Reveals a Class 1 Postfusion Architecture with Extensive Glycosylation” (Journal of Virology, 2013):

Biological target: the molecule itself
Experiment: crystal structure

B1: Guanarito virus (GTOV) fusion glycoprotein GP2, residues 292 to 418 (domain or fragment)
chain: DSEFCDMLRLFDFNKNAIEKLNNQTKTAVNMLTHSINSLISDNLLMRNKLKEILKVPYCNYTRFWYINHTKSGEHSLPRCWLVSNGSYLNESDFRNEWILESDHLIAEMLSKEYQDRQGKTPLTLVD
notes: also called GTOV GP2
- stoichiometry N: 3
